The text below walks through data of article PMC9491089.

For experiment [1], the target named is recombinant P. xylostella BJSP-1-GST fusion protein (basic juvenile hormone-suppressible protein 1-like) (P. xylostella). As to the kind of experiment: ELISA; plates coated with BJSP-1-GST (8 μg/well, 4°C overnight); increasing concentrations of Cry7Ab4 toxic core added; detected with anti-His antibody. (In an ELISA, binding on a coated surface is turned into a signal by an enzyme label.)

The target in experiment [2] is recombinant His-tagged Cry7Ab4 toxic core (residues 1-637) (Bacillus thuringiensis). As to the kind of experiment: ELISA; plates coated with Cry7Ab4 toxic core (8 μg/well, 4°C overnight); increasing concentrations of BJSP-1-GST added; detected with anti-GST antibody.

Consider “recombinant His-tagged Cry7Ab4 toxic core (residues 1-637) (domain or fragment)”, for which, in experiment [1], the concentration at which binding was saturated was found to be 16 µg/mL. On to “recombinant P. xylostella BJSP-1-GST fusion protein (basic juvenile hormone-suppressible protein 1-like) (natural protein)”, for which, in experiment [2], the concentration at which binding was saturated was determined as 64 µg/mL.
